This note sets out measurements from patent US20240360436A1 (DDBIO, published 2024).

Changes are numbered by the printed parent chain.

This assay has as its target T1, CD40 antigen (biotin-label-free, AcroBio Cat #: CDO-H5253) (UniProt P25942 21-193).
T1 construct: Bought protein; A biotin-labeled form (CDO-H82E8) was used for panning only; also called CD40 antigens
Briefly: ELISA, CD40 antigen coated, anti-flag-HRP, OD405. (ELISA stands for enzyme-linked immunosorbent assay.)

T1 sequence (P25942 21-193 limits assumed): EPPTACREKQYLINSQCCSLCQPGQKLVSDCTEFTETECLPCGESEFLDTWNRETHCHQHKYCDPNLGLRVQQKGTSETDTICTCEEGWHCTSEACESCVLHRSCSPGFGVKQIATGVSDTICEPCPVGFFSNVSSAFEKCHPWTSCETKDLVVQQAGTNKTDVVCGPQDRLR

B1: DDBK003-3 (Fab, V domains shown)
VH: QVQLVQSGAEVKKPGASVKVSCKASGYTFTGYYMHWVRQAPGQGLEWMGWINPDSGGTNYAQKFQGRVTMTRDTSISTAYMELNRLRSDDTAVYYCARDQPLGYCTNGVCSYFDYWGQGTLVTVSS
VL: DIQMTQSPSSVSASIGDRVTVTCRASQAIGSWVAWYQQKPGKVPKLLIYSASKIQSGVPSRFSGSGSGTDFTLTISSLQPEDFATYYCQQANSFPITFGQGTLLEIKR
notes: Light-chain replacement clone of Selicrelumab; also expressed as KLC/IgG1
The molecule B1 had an ELISA reading of 2.87 OD405.

B2: Selicrelumab (Fab, V domains shown)
VH: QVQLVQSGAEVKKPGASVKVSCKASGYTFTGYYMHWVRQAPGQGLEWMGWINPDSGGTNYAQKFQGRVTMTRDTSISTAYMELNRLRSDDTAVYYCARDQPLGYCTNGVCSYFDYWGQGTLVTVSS
VL: DIQMTQSPSSVSASVGDRVTITCRASQGIYSWLAWYQQKPGKAPNLLIYTASTLQSGVPSRFSGSGSGTDFTLTISSLQPEDFATYYCQQANIFPLTFGGGTKVEIKR
notes: Also expressed as full-length antibody; also called #1; Positive antibody
Take B2: the ELISA reading came to 2.92 OD405.

B3: DDBK003-14 (Fab, V domains shown)
VH: QVQLVESGAEVKKPGSSVKVSCKASGGTFSASAISWVRQAPGQGLEWMGGIFPILGSANYAQKFQGRVTITADESTSTAYMELSSLRSEDTAVYYCARDLAGYNYGFFGYWGRGTLVTVSS
VL: B2 VL with Y30N, K42R, N45K, N92K, I93S
notes: Light- and heavy-chain double replacement clone of Selicrelumab; also expressed as KLC/IgG1
In turn, B3 came in with an ELISA reading of 2.02 OD405.

B4: DDBK003-13 (Fab, V domains shown)
VH: EVQLVQSGPGLVRPSETLSLTCSASGGSVSSASDLWGWIRQAPGKGLEWIGNIYYLGKTDYNPSLGGRVSITMDKSKNQFSLRLSSVTAADTAMYYCAKRSTLPMRGFFVSWGQGTTVTVSS
VL: B2 VL
notes: Heavy-chain replacement clone of Selicrelumab; also expressed as KLC/IgG1
In turn, B4 showed an ELISA reading of 3.33 OD405.

B5: DDBK003-12 (Fab, V domains shown)
VH: QVQLQESGPGLVKPSETLSLTCNVSGYSITRGYFWGWIRQPPGKGLEWIGSIYQSGAARYNPSLQSRVTLSVDTSKNQFSLKLTSVTAADTAVYYCARDAATQVRGSWYNGYYFDPWGQGTLVTVSS
VL: B2 VL
notes: as for B4
B5 showed an ELISA reading of 3.22 OD405.

B6: DDBK003-16 (Fab, V domains shown)
VH: B3 VH
VL: B2 VL with Y30S, N45K, T50A, T53S, I93S, V104L
notes: as for B3
In turn, B6 came in with an ELISA reading of 1.93 OD405.

B7: DDBK003-2 (Fab, V domains shown)
VH: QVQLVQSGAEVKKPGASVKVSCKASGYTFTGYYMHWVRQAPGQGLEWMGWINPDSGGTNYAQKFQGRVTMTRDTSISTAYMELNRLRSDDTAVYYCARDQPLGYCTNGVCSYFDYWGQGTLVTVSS
VL: DIQMTQSPSSVSASVGDRVTITCRATQDIRPWLAWYQQRPGKAPQLLIYRTSTLQSGVPSRFSGSGSGTDFTLTISNLQPEDFATYYCQHAKIFPITFGQGTRLEIKR
notes: Light-chain replacement clone of Selicrelumab; also expressed as full-length antibody (KLC/IgG1)
B7 showed an ELISA reading of 3.15 OD405.
